Results reported in PMC5595889.

Target: GST-tagged importin α7 lacking the IBB (human)
Assay: pull-down

Q: Which quantity recovered relative to importin α1 does the source give for “influenza A virus (H1N1 strain A/WSN/33) monomeric nucleoprotein (from UniProt P15682 1-498) (natural protein)” here?
A: Its quantity recovered relative to importin α1 is 2 fold.
